Here are results for eleven molecules from paper PMC3737555, “Structural insights into the targeting of mRNA GU-rich elements by the three RRMs of CELF1”.

For one series, the system named is CELF1 RRM23 (Xenopus). The experiment in a line: ITC. The settings on record: ITC: 25 mM potassium phosphate, 100 mM NaCl, pH 7.0, 25 C, 12.5 uM protein, 125 uM RNA in syringe; NMR: same buffer, 298 K, ~200-250 uM protein.
Series [1] concerns the target T1, CELF1 RRM123 (Xenopus, UniProt O57406 1-214+385-489, internal_change). In words: NMR PRE; strongest PRE in RRM3; ITC: 25 mM potassium phosphate, 100 mM NaCl, pH 7.0, 25 C, 12.5 uM protein, 125 uM RNA in syringe; NMR: same buffer, 298 K, ~200-250 uM protein. To be noted: protein: recombinant; tags: N-terminal His; label: MTSL on 3' 4-thiouridine; single strand.
Series [2] has as its target T1, CELF1 RRM123. In words: ITC; n=0.67; ITC: 25 mM potassium phosphate, 100 mM NaCl, pH 7.0, 25 C, 12.5 uM protein, 125 uM RNA in syringe; NMR: same buffer, 298 K, ~200-250 uM protein. To be noted: protein: recombinant; tags: N-terminal His; single strand. Background: In ITC the heat of successive injections is recorded.
Series [3] has as its target T1, CELF1 RRM123. In words: ITC; n=0.85; ITC: 25 mM potassium phosphate, 100 mM NaCl, pH 7.0, 25 C, 12.5 uM protein, 125 uM RNA in syringe; NMR: same buffer, 298 K, ~200-250 uM protein. To be noted: protein: recombinant; tags: N-terminal His; single strand.
For series [4], the target named is CELF1 full-length wild type (Xenopus, UniProt O57406 1-489). In words: NMR; extensive line broadening; ITC: 25 mM potassium phosphate, 100 mM NaCl, pH 7.0, 25 C, 12.5 uM protein, 125 uM RNA in syringe; NMR: same buffer, 298 K, ~200-250 uM protein. To be noted: protein: recombinant, tags: N-terminal His.
CELF1 full-length wild type, sequence (O57406 whole entry): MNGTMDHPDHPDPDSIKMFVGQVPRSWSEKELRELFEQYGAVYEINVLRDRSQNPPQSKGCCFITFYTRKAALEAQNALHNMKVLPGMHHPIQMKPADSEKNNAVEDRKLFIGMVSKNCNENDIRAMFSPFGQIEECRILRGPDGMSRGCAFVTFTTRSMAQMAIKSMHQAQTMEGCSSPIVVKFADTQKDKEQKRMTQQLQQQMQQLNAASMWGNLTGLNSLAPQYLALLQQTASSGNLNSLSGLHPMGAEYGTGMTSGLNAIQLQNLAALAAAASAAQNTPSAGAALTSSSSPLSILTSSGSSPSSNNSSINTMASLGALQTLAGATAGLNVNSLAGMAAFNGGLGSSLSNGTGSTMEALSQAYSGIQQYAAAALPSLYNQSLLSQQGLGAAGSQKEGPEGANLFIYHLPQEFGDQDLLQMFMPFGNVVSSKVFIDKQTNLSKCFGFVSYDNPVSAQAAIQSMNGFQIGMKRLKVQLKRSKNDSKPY
The target of series [5] is T1, CELF1 RRM123. In words: ITC; n=0.79; ITC: 25 mM potassium phosphate, 100 mM NaCl, pH 7.0, 25 C, 12.5 uM protein, 125 uM RNA in syringe; NMR: same buffer, 298 K, ~200-250 uM protein. The settings on record: protein: recombinant; tags: N-terminal His; single strand.
The target of series [6] is T1, CELF1 RRM123. In words: NMR PRE; strongest PRE in RRM2; ITC: 25 mM potassium phosphate, 100 mM NaCl, pH 7.0, 25 C, 12.5 uM protein, 125 uM RNA in syringe; NMR: same buffer, 298 K, ~200-250 uM protein. To be noted: protein: recombinant; tags: N-terminal His; label: MTSL on 5' 4-thiouridine; single strand.
Series [7] concerns the target T1, CELF1 RRM123. The experiment in a line: ITC; n=1.19; text gives 1.50 +/- 0.28; ITC: 25 mM potassium phosphate, 100 mM NaCl, pH 7.0, 25 C, 12.5 uM protein, 125 uM RNA in syringe; NMR: same buffer, 298 K, ~200-250 uM protein. The settings on record: protein: recombinant; tags: N-terminal His; single strand.
The target in another series is CELF1 RRM1 (Xenopus, UniProt O57406 16-99). The experiment in a line: NMR PRE; ITC: 25 mM potassium phosphate, 100 mM NaCl, pH 7.0, 25 C, 12.5 uM protein, 125 uM RNA in syringe; NMR: same buffer, 298 K, ~200-250 uM protein. The settings on record: protein: recombinant; tags: His; label: MTSL on 5' 4-thiouridine; single strand.
CELF1 RRM1, sequence (O57406 16-99): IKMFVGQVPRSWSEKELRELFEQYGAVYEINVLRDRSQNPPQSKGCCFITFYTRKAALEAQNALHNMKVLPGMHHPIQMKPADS
The target in series [8] is T1, CELF1 RRM123. In words: ITC; n=0.83; ITC: 25 mM potassium phosphate, 100 mM NaCl, pH 7.0, 25 C, 12.5 uM protein, 125 uM RNA in syringe; NMR: same buffer, 298 K, ~200-250 uM protein. The settings on record: protein: recombinant; tags: N-terminal His; hairpin, 4 bp stem, single-stranded 5' and 3' tails.
For series [9], the target named is T1, CELF1 RRM123. The experiment in a line: ITC; n=1.64; ITC: 25 mM potassium phosphate, 100 mM NaCl, pH 7.0, 25 C, 12.5 uM protein, 125 uM RNA in syringe; NMR: same buffer, 298 K, ~200-250 uM protein. The settings on record: protein: recombinant; tags: N-terminal His; single strand.
Series [10] concerns the target T1, CELF1 RRM123. The experiment in a line: ITC; n=1.45; ITC: 25 mM potassium phosphate, 100 mM NaCl, pH 7.0, 25 C, 12.5 uM protein, 125 uM RNA in syringe; NMR: same buffer, 298 K, ~200-250 uM protein. To be noted: protein: recombinant; tags: N-terminal His; single strand.

T1 sequence (O57406 other isoform, or with tags, fused parts or gaps): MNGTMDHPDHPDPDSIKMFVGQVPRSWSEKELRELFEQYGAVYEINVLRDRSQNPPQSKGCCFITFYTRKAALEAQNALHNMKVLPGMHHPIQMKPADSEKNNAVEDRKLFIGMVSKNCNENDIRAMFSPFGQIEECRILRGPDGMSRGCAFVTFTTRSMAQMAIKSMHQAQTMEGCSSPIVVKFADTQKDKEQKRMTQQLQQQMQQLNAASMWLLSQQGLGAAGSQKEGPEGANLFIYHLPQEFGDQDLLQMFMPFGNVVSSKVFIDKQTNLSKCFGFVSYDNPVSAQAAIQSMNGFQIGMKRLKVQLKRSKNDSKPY

As usually defined, the Kd is a measure of binding affinity in units of concentration. With RNA with UGU(U) site used with RRM23, the Kd with CELF1 RRM23 (Xenopus) amounted to 520 nM.

For the molecule UGUUUUGUUUUUUGUU (ssRNA, 3'-terminal 4-thiouridine (taken as an additional nucleotide; not explicit)) [3'-U* EDEN-2U/4U], the binding result with CELF1 RRM123 [1] is on record as “binds”.

On to UGUUUUUUGUUUUGU (ssRNA) [EDEN-4U/2U], for which, in the series with CELF1 RRM123 [2], the Kd amounted to 980 ± 120 nM.

In the case of UGUUUUGUUUUUUGU (ssRNA) [EDEN-2U/4U], the Kd with CELF1 RRM123 [3] was determined as 110 ± 20 nM. The binding result in series [4] (single strand) was “binds”.

As for UGUAUGUGUUGUUUUAUGU (ssRNA) [EDEN19], the Kd with CELF1 RRM123 [5] amounted to 330 ± 70 nM.

Take UUGUUUUGUUUUUUGU (ssRNA, additional 5'-terminal 4-thiouridine) [5'-U* EDEN-2U/4U]: in the series with CELF1 RRM123 [6], the binding result is “binds”.

As for UGUUUUGUUUGU (ssRNA) [EDEN-2U/1U], the Kd with CELF1 RRM123 [7] came to 1490 ± 230 nM.

As for UUGU (ssRNA, 5'-terminal 4-thiouridine) [5'-U*UGU], the binding result in the series with CELF1 RRM1 is listed as “binds”.

With UGUUUUGUUCCCGAGGACGGGUUGU (structured_RNA) [EDEN-2U/HL], the binding result in [4] (hairpin, 4 bp stem, single-stranded 5' and 3' tails) is reported as “binds”. Moreover, in the series with CELF1 RRM123 [8], the dissociation constant Kd stood at 550 ± 80 nM.

In the case of UGUUUUUUGU (ssRNA) [EDEN-4U], the Kd with CELF1 RRM123 [9] worked out at 2080 ± 400 nM.

For the molecule UGUUUGUUUGU (ssRNA) [EDEN11 (GRE)], in the series with CELF1 RRM123 [10], the Kd amounted to 2200 ± 300 nM.
